± gives the half width of the 95% confidence interval.
Assay: folding stability dG unfold from trypsin proteolysis; higher = more stable
Outline: (§1)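 How resistant each design was to proteolysis was captured as K50, inferred by Bayesian fitting of sequencing counts. Unfolding free energy was then derived relative to a sequence-predicted unfolded-state K50 and a shared folded-state K50, per protease or combined. Digestion used trypsin and chymotrypsin at 11 threefold-diluted concentrations plus a no-protease condition, on mini-proteins under 80 residues without cysteine in a PA-tagged cDNA display construct. Designs were kept only when AlphaFold2 dimer inter-PAE was above 15.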

Sequence | folding stability dG unfold [kcal/mol]
SYWIRITINGQTIMFPAEDADKLLGELQSNGWRIKITDIEPDPDDDWIMFKINIRPPKPPPPPPPDPDGKSA [r9_448_TrROS] | 2 ± 0.11
SADLKIDDVTVQHYNDYLYVSAEITFPNGWEITVHWMIDPNGKIIDMMIEIRPPPPPVDEEDQEKAQKKSAG [r14_171_TrROS] | 2.47 ± 0.22
SASFTLTITPVSTLPGGEVKYEVTVTTPTATVTLSATYDPATGLITVTFPETGSTVTFDPATGTVTVTPSAG [r14_260_JUSTAS] | 3.93 ± 0.12
SKEVKVKVKVVAPFYNKTKPFPLNIEVEVTVSSSNPELSPEKLTPENLAKIAAEKAREILLKLGIPEEFLSA [r9_516_TrMRF] | 2.63 ± 0.14
SAKPKVIAEITIYNKETGKVVRITLTDEALEEAKKKGLKEVKLTVEIEVVNPDGSKKTFKMEITLKVEDSAG [r14_100_TrROS_Hall] | 2.77 ± 0.26
SAGGMLPDTLKLAREIAKELGINRIEPLESGEVVLYLPEDKVIVIDTINGIPRVRIYNKDEWIEIPISAGGS [r16_296_TrMRF] | 3.65 ± 0.096
SAGSPVTVPLTLTLTYTVNNPEGPEVLKTETIPLPLVFSPEELDDEETKALLQALVDALPDDVSEVVLESAG [r5_849_JUSTAS] | 1.32 ± 0.02
SAGGSAGGSAMTIEQIANELAKKLGVDIKVVVTYENGEKKEYRPDELKNIPPGPFTVEFYTDSAGGSAGGSA [r18_394_TrMRF] | 3.01 ± 0.096
SGSMTIKLTPDSPVEDVVKFIAENPNVNVTLLMPPEMSEELREKFEKALKEANVPKSQKVTFEVVPPGEESA [r9_670_JUSTAS] | 2.6 ± 0.14
SAGGSAGGSKPLVIRVRLTYYDEKTGKKVKEVELTLTVSEEEAKKLAEELKKLYPNVEVEIFPSAGGSAGGS [r12_342_TrROS_Hall] | 4.37 ± 0.53
SAGGSAGGSPDVVVTVEKNEDGEETVTVLMSREDVERLAAALPDVKVEELPDGLVLLTVRVKPSAGGSAGGS [r20_231_TrROS_Hall] | 0.51 ± 0.038
SAGGGSRTLTRGDKTYVFTTAPPPTGGRYVTLTVVDPATGAPAPVYTMDVTDGTDEEALARLLAAPLSAGGS [r16_378_JUSTAS] | -0.038 ± 0.11
SAGGSAGGSAGGGMVLKTEPVVITSTSTAPTEDGKWITTTSTLVVTKELILPSTLPGLLSAGGSAGGSAGGS [r10_1133_JUSTAS] | 0.173 ± 0.028
SADPDEEVTLTLTLPASASPEEVEKVRDEIREAFESLGLEVDVKVEADPETGEVPVTVTLKKEALEKLGSAG [r14_602_TrMRF] | 0.834 ± 0.043
SAGGSAGGSPKITVDPNTGKVLIEIPGPSGTALIIAEVKDGKITRVDIIGPPELREAIKKLLGSAGGSAGGS [r20_112_TrMRF] | 2.19 ± 0.082
SAGGSAGGSAGGMKKKIPNKTLTIEIEVKLENGLYLKMKITVNKNGEIKIEIEVIPKEDLSAGGSAGGSAGG [r7_214_TrROS_Hall] | 2.57 ± 0.12

Sequence | folding stability dG unfold [kcal/mol]
SAGGVIELPNAGLPEFLAFLKEAAEKGIPNVTVILTGPSKPYLAIYDPKKNIVTVLHPNGKTYTFKASAGGS [r16_481_TrMRF] | 2.76 ± 0.15
SAGGSAGGSAGGPPKWVIFIMIEIRPVTVEVYDPKNGEPLMEKPVWVIKIKIFLFKPGDFSAGGSAGGSAGG [r7_573_TrROS] | 3.07 ± 0.081
SMPMTVEEFLEANPDVILIRLPNEKVIFINPEEEKAFVLLPETGEVLVIDATLEEVLELVPEFGAEILDESA [r9_721_TrMRF] | 2 ± 0.087
NKIEIKAYKIEETGEIIVEVKIEFPVYDPETKTIKPVVLTITFVGDPEKAIEAIKKFVDFYGGEIDYIDFGS [r1_488_TrMRF] | 2.84 ± 0.099
SAGGMPLPFRITQWDPNTGKPVATFPAVYDPETGLVVITPPDGSKEVFDAPLEEIVEALPSNWTVEPSAGGS [r16_543_TrMRF] | 0.121 ± 0.096
SAGGSAGGSKLVLRIVVRNKETGEWQTLELEIEVEESEEEALAKAKELLASLPEEDVKIEILPSAGGSAGGS [r12_871_TrROS_Hall] | 3.18 ± 0.14
SAGGSAGGSKKPVKVTVTVEVNPETGEITKVTVTEEYKDGTVTVTVTNANGEKLTFTFKIKKPSAGGSAGGS [r12_60_TrROS_Hall] | 2.15 ± 0.11
SAGGSLDVKIEITPPDGSTRTLDIEVESEEEAIKIAEELQKELGEGNTLKVRITYPGPKSPVELELKSAGGS [r8_107_JUSTAS] | 1.53 ± 0.04
SAGGSRIEEVAREILEKLPLKPGEPVLVEVEVDFPDGLRIRLKVEAYVDPETGEVHLKVEILEIEPVSAGGS [r16_634_TrMRF] | 3.24 ± 0.039
SAGMPLASVEVEIEKLPDGTYRVRARITIWDPVTGKPLREVEFEGPFESPEAAEAEALKKALEVLEADSAGG [r19_255_TrMRF] | 4.25 ± 0.18
SAGGSAGGSAGMIKKVKISRTSDGTVTRTTEYLETDKPGVPKVVTTEVETVTLAPSEPLFSAGGSAGGSAGG [r11_517_JUSTAS] | -1.11 ± 0.51
SAGGSNVVEVEVEELPDGTVVLRVRVLRLLPNGELGGVVERPFVFPRELFENIPLEEIVRRAVEEGSAGGSA [r2_421_TrMRF] | 3.39 ± 0.081
SAMITVPFTFPAEKAEEILEDPELKELLEKLEKELGAKVVKIEVSPETVPSGSKTTEYVKFTFTIEKKGSAG [r14_819_JUSTAS] | 1.2 ± 0.032
SAMKKITLDVYRPPDKLLVTVSFPETGKTVTLPFTSEEALREEIVKKLGLSPEELEIVDRKEKELSPELLSA [r9_909_JUSTAS] | 0.194 ± 0.054
SAGGSAGGSAGKIKITEIHFMPNGMVVVEIEFEDPDGETFNLTVVFRFDPNGKIRDIHIMSAGGSAGGSAGG [r11_709_TrROS] | 3.35 ± 0.15

Assay: folding stability dG unfold (combined trypsin and chymotrypsin); higher = more stable
Outline: as §1

Sequence | folding stability dG unfold [kcal/mol]
SYWIRITINGQTIMFPAEDADKLLGELQSNGWRIKITDIEPDPDDDWIMFKINIRPPKPPPPPPPDPDGKSA [r9_448_TrROS] | 3.17 ± 0.34
SADLKIDDVTVQHYNDYLYVSAEITFPNGWEITVHWMIDPNGKIIDMMIEIRPPPPPVDEEDQEKAQKKSAG [r14_171_TrROS] | 3.05 ± 0.25
SASFTLTITPVSTLPGGEVKYEVTVTTPTATVTLSATYDPATGLITVTFPETGSTVTFDPATGTVTVTPSAG [r14_260_JUSTAS] | 5.05 ± 0.083
SKEVKVKVKVVAPFYNKTKPFPLNIEVEVTVSSSNPELSPEKLTPENLAKIAAEKAREILLKLGIPEEFLSA [r9_516_TrMRF] | 2.86 ± 0.34
SAKPKVIAEITIYNKETGKVVRITLTDEALEEAKKKGLKEVKLTVEIEVVNPDGSKKTFKMEITLKVEDSAG [r14_100_TrROS_Hall] | 3.96 ± 0.26
SAGGMLPDTLKLAREIAKELGINRIEPLESGEVVLYLPEDKVIVIDTINGIPRVRIYNKDEWIEIPISAGGS [r16_296_TrMRF] | 4.26 ± 0.15
SAGSPVTVPLTLTLTYTVNNPEGPEVLKTETIPLPLVFSPEELDDEETKALLQALVDALPDDVSEVVLESAG [r5_849_JUSTAS] | 1.38 ± 0.046
SAGGSAGGSAMTIEQIANELAKKLGVDIKVVVTYENGEKKEYRPDELKNIPPGPFTVEFYTDSAGGSAGGSA [r18_394_TrMRF] | 3.51 ± 0.15
SGSMTIKLTPDSPVEDVVKFIAENPNVNVTLLMPPEMSEELREKFEKALKEANVPKSQKVTFEVVPPGEESA [r9_670_JUSTAS] | 3.55 ± 0.15
SAGGSAGGSKPLVIRVRLTYYDEKTGKKVKEVELTLTVSEEEAKKLAEELKKLYPNVEVEIFPSAGGSAGGS [r12_342_TrROS_Hall] | 4.84 ± 0.39
SAGGSAGGSPDVVVTVEKNEDGEETVTVLMSREDVERLAAALPDVKVEELPDGLVLLTVRVKPSAGGSAGGS [r20_231_TrROS_Hall] | 0.728 ± 0.089
SAGGGSRTLTRGDKTYVFTTAPPPTGGRYVTLTVVDPATGAPAPVYTMDVTDGTDEEALARLLAAPLSAGGS [r16_378_JUSTAS] | 0.581 ± 0.038
SAGGSAGGSAGGGMVLKTEPVVITSTSTAPTEDGKWITTTSTLVVTKELILPSTLPGLLSAGGSAGGSAGGS [r10_1133_JUSTAS] | 0.34 ± 0.096
SADPDEEVTLTLTLPASASPEEVEKVRDEIREAFESLGLEVDVKVEADPETGEVPVTVTLKKEALEKLGSAG [r14_602_TrMRF] | 1.73 ± 0.18
SAGGSAGGSPKITVDPNTGKVLIEIPGPSGTALIIAEVKDGKITRVDIIGPPELREAIKKLLGSAGGSAGGS [r20_112_TrMRF] | 2.08 ± 0.073
